Assay [1] addresses ElpQ_(181–343) (B. burgdorferi). Nature of the assay: SPR; Elp truncation amine-coupled to a CMD200 chip; multicycle twofold injection series of C1s enzyme or activated C1s–CCP1–CCP2–SP constructs from 200 nM; HBS-T Ca2+ (10 mM Hepes pH 7.3, 140 mM NaCl, 0.005% Tween-20, 5 mM CaCl2), 30 ul/min; K_(D, kin) from a kinetic and K_(D, ss) from a steady-state 1:1 (Langmuir) fit; triplicate. (Surface plasmon resonance follows binding to a sensor surface in real time, without labels.)

Assay [2] deals with ElpB_(182–378) (B. burgdorferi) (UniProt H7C7R2). Described as above.
Assay [3] has as its target activated c-Myc-C1s–CCP1–CCP2–SP_(S632A) (human) (UniProt P09871). The assay is described as follows: AlphaScreen or HTRF; competition: 50 nM GST-ElpQ on glutathione donor beads and 500 nM activated c-Myc-C1s–CCP1–CCP2–SP_(S632A) on anti-c-Myc acceptor beads, 12-point twofold dilution of untagged competitor; HBS-T Ca2+, 1 h at room temperature; IC50 taken to approximate KD (Cheng–Prusoff).

Assay [4] addresses activated C1s–CCP1–CCP2–SP (human) (UniProt P09871).
Assay [5] concerns the target ElpB_(111–378) (B. burgdorferi). The assay is described as follows: SPR; Elp truncation amine-coupled to a CMD200 chip; multicycle twofold injection series of C1s enzyme or activated C1s–CCP1–CCP2–SP constructs from 200 nM; HBS-T Ca2+ (10 mM Hepes pH 7.3, 140 mM NaCl, 0.005% Tween-20, 5 mM CaCl2), 30 ul/min; K_(D, kin) from a kinetic and K_(D, ss) from a steady-state 1:1 (Langmuir) fit; triplicate.

Values joined by “and” are separate entries in the source; they are usually repeats but may differ in a detail not shown here. Equal values may be shown once.

Sequence of activated c-Myc-C1s–CCP1–CCP2–SP_(S632A) (human) (P09871 16-688 S632A): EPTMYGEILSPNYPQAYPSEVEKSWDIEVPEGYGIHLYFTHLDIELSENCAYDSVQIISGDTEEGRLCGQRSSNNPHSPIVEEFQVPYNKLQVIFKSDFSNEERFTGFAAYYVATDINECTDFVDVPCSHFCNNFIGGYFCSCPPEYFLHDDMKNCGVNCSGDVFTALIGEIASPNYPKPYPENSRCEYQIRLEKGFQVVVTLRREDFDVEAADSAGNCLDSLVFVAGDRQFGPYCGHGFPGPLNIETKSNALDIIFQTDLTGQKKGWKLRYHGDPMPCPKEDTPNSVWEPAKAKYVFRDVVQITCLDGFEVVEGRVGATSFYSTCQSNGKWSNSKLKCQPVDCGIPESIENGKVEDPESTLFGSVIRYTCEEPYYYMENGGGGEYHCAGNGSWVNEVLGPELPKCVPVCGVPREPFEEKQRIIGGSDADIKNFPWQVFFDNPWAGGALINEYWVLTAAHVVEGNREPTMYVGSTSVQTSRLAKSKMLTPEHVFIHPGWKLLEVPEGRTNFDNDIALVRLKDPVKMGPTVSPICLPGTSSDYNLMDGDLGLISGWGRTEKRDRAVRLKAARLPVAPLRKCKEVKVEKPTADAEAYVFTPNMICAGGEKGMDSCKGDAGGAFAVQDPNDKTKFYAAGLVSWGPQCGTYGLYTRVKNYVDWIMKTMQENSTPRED
Sequence of activated C1s–CCP1–CCP2–SP (human) (P09871 292-688): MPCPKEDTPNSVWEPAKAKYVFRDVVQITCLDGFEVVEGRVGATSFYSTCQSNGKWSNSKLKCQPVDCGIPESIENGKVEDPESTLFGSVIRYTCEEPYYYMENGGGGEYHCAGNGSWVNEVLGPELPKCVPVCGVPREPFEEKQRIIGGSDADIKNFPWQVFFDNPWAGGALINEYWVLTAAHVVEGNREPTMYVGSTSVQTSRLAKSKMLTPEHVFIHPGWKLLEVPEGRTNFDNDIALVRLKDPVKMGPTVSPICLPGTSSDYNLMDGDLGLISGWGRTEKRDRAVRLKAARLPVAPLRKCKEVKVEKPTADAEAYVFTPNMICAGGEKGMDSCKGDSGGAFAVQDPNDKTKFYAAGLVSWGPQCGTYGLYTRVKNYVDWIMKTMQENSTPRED

Regarding “C1s CCP1–CCP2–SP CCPE (from UniProt P09871) (domain or fragment)”, the values for the Kd in assay [1] and in assay [2] were 370 nM and 570 nM, respectively.

Take “ElpB_(182–378) (from UniProt H7C7R2 182-378) (domain or fragment)”: the Kd in assay [3] stood at 45 nM.

With ElpQ_(19–343) (natural protein), the Kd in assay [3] was 190 nM.

As to ElpQ_(181–343) (domain or fragment), the Kd in assay [3] is 110 nM. Moreover, the IC50 of inhibition of C4 cleavage by 6.25 nM activated C1s–CCP1–CCP2–SP, SDS-PAGE densitometry, ElpQ (181–343) 25 to 0.20 uM; blocks m9 with m17 in assay [4] stood at 3.6 µM.

“activated C1s–CCP1–CCP2–SP (from UniProt P09871 292-688) (domain or fragment)” displayed a Kd in assay [1] of 210 nM.

Take “complement component C4 (natural protein)”: the equilibrium dissociation constant (Kd) in assay [3] came out at 740 nM.

For the substance “purified full-length activated C1s enzyme”, the Kd was 17 nM and 31 nM in assay [1]; 47 nM and 85 nM in assay [2]; 21 nM and 35 nM in assay [5].

Usually Kd stands for a measure of binding affinity in units of concentration. Higher therefore signals weaker binding.

The record behind these values is article PMC9637899.
